Legend:
FMO-2 = target: T1, FMO-2 (Caenorhabditis elegans, UniProt G5EBJ9); test: NADPH consumption at […] nm, Michaelis-Menten fit; assay type: biochemical; settings: 0.5 mM NADPH, excess FAD, 25 mM sodium phosphate pH 8.5, 0.5 mM DETAPAC, 30 C; 0.1-10 mM substrate
T1 construct: purified FMO-2 protein purchased from GenScript
T1 sequence (G5EBJ9 1-529): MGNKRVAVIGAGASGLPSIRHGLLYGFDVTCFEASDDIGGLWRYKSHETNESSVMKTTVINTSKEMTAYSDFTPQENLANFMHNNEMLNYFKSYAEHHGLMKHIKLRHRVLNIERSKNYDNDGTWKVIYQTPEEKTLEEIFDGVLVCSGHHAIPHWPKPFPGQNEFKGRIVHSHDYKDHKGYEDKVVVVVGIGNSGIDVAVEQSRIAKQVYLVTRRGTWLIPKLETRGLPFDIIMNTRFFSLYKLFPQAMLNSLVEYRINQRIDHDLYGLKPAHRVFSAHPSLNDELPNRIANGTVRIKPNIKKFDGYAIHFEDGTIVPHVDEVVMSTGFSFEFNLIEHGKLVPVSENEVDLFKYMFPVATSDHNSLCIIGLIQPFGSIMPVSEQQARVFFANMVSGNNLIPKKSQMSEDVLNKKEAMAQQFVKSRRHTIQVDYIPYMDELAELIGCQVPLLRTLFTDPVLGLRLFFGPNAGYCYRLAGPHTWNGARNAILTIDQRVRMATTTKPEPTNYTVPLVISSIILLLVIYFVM

purified protein = substrate: CC(=O)C(=O)O; test: purified protein; assay type: biochemical, Caenorhabditis elegans; settings: 0.5 mM NADPH, excess FAD, 25 mM sodium phosphate pH 8.5, 0.5 mM DETAPAC, 30 C

N[C@@H](Cc1c[nH]c2ccccc12)C(=O)O [tryptophan]
Km (FMO-2): 880 ± 430 µM

B1: FMO-2 (Caenorhabditis elegans) (protein)
chain: MGNKRVAVIGAGASGLPSIRHGLLYGFDVTCFEASDDIGGLWRYKSHETNESSVMKTTVINTSKEMTAYSDFTPQENLANFMHNNEMLNYFKSYAEHHGLMKHIKLRHRVLNIERSKNYDNDGTWKVIYQTPEEKTLEEIFDGVLVCSGHHAIPHWPKPFPGQNEFKGRIVHSHDYKDHKGYEDKVVVVVGIGNSGIDVAVEQSRIAKQVYLVTRRGTWLIPKLETRGLPFDIIMNTRFFSLYKLFPQAMLNSLVEYRINQRIDHDLYGLKPAHRVFSAHPSLNDELPNRIANGTVRIKPNIKKFDGYAIHFEDGTIVPHVDEVVMSTGFSFEFNLIEHGKLVPVSENEVDLFKYMFPVATSDHNSLCIIGLIQPFGSIMPVSEQQARVFFANMVSGNNLIPKKSQMSEDVLNKKEAMAQQFVKSRRHTIQVDYIPYMDELAELIGCQVPLLRTLFTDPVLGLRLFFGPNAGYCYRLAGPHTWNGARNAILTIDQRVRMATTTKPEPTNYTVPLVISSIILLLVIYFVM
notes: purified FMO-2 protein purchased from GenScript
Km (purified protein): 590 ± 290 µM
kcat (purified protein): 35 ± 1 s⁻¹
kcat/Km (purified protein): 59000 M⁻¹ s⁻¹

Source: publication PMC12551704, “Metabolic regulation of behavior by the intestinal enzyme FMO-2” (Science Advances, 2025)
